Paper PMC10305218, “Expression of β-Glucosidases from the Yak Rumen in Lactic Acid Bacteria: A Genetic Engineering Approach” (Microorganisms, 2023)

Key:
[1] = substrate: OCc1ccccc1O[C@@H]1O[C@H](CO)[C@@H](O)[C@H](O)[C@H]1O; test: DNS reducing sugar assay, Michaelis-Menten / Lineweaver-Burk fit; type: biochemical, Paenibacillus polymyxa; settings: 50 °C, pH 7.0, bacterial supernatant
From the text: DNS reducing sugar assay, Michaelis-Menten / Lineweaver-Burk fit on BglB

[2] = substrate: OCc1ccccc1O[C@@H]1O[C@H](CO)[C@@H](O)[C@H](O)[C@H]1O; test: as above; type: biochemical, Paenibacillus polymyxa; settings: 50 °C, pH 7.0, bacterial supernatant; remark: listed apart in the source
From the text: DNS reducing sugar assay, Michaelis-Menten / Lineweaver-Burk fit on BglA

B1: BglB (Paenibacillus polymyxa) (protein)
chain: NTFIFPATFMWGTSTSSYQIEGGTDEGGRTPSIWDTFCQIPGKVIGGDCGDVACDHFHHFKEDVQLMKQLGFLHYRFSVAWPRIMPAAGIINEEGLLFYEHLLDEIELAGLIPMLTLYHWDLPQWIEDEGGWTQRETIQHFKTYASVIMDRFGERINWWNTINEPYCASILGYGTGEHAPGHENWREAFTAAHHILMCHGIASNLHKEKGLTGKIGITLNMEHVDAASERPEDVAAAIRRDGFINRWFAEPLFNGKYPEDMVEWYGTYLNGLDFVQPGDMELIQQPGDFLGINYYTRSIIRSTNDASLLQVEQVHMEEPVTDMGWEIHPESFYKLLTRIEKDFSKGLPILITENGAAMRDELVNGQIEDTGRHGYIEEHLKACHRFIEEGGQLKGYFVWSFLDNFEWAWGYSKRFGIVHINYETQERTPKQSALWFKQMMAKNGF
notes: amplified from yak rumen metagenomic DNA; usp45 signal peptide, pMG36e, secreted by L. lactis NZ9000; about 55 kDa; gene 1361 bp; supernatant / TCA-acetone precipitate
**Q.** How did the Km [1] turn out when B1 was run?
**A.** 43.99 µmol/L

**Q.** What about the Vmax [1] of the same protein?
**A.** 1250 µmol/min/mg

**Q.** What about the kcat [1] of the same protein?
**A.** 349 s⁻¹

**Q.** And the kcat/Km [1]?
**A.** 7.93e+06 M⁻¹ s⁻¹

B2: BglA (Paenibacillus polymyxa) (protein)
chain: MTIFQFPQDFMWGTATAAYQIEGAYQEDGRGLSIWDTFAHTPGKVFNGDNGNVACDSYHRYEEDIRLMKELGIRTYRFSVSWPRIFPNGDGEVNQEGLDYYHRVVDLLNDNGIEPFCTLYHWDLPQALQDAGGWGNRRTIQAFVQFAETMFREFHGKIQHWLTFNEPWCIAFLSNMLGVHAPGLTNLQTAIDVGHHLLVAHGLSVRRFRELGTSGQIGIAPNVSWAVPYSTSEEDKAACARTISLHSDWFLQPIYQGSYPQFLVDWFAEQGATVPIQDGDMDIIGEPIDMIGINYYSMSVNRFNPEAGFLQSEEINMGLPVTDIGWPVESRGLYEVLHYLQKYGNIDIYITENGACINDEVVNGKVQDDRRISYMQQHLVQVHRTIHDGLHVKGYMAWSLLDNFEWAEGYNMRFGMIHVDFRTQVRTPKESYYWYRNVVSNNWLETRR
notes: as for B1
**Q.** With B2 as the protein, how does the Km [2] read?
**A.** 38.61 µmol/L

**Q.** And the Vmax [2]?
**A.** 1340 µmol/min/mg

**Q.** And the kcat [2]?
**A.** 435 s⁻¹

**Q.** What about the kcat/Km [2] of the same protein?
**A.** 1.13e+07 M⁻¹ s⁻¹
